Assay results taken from patent US20230331779A1 (SHAANXI MICOT TECHNOLOGY, published 2023).

Target: T1, calcium-sensing receptor (CaSR)
T1 sequence (P41180 whole entry, species assumed, looked up): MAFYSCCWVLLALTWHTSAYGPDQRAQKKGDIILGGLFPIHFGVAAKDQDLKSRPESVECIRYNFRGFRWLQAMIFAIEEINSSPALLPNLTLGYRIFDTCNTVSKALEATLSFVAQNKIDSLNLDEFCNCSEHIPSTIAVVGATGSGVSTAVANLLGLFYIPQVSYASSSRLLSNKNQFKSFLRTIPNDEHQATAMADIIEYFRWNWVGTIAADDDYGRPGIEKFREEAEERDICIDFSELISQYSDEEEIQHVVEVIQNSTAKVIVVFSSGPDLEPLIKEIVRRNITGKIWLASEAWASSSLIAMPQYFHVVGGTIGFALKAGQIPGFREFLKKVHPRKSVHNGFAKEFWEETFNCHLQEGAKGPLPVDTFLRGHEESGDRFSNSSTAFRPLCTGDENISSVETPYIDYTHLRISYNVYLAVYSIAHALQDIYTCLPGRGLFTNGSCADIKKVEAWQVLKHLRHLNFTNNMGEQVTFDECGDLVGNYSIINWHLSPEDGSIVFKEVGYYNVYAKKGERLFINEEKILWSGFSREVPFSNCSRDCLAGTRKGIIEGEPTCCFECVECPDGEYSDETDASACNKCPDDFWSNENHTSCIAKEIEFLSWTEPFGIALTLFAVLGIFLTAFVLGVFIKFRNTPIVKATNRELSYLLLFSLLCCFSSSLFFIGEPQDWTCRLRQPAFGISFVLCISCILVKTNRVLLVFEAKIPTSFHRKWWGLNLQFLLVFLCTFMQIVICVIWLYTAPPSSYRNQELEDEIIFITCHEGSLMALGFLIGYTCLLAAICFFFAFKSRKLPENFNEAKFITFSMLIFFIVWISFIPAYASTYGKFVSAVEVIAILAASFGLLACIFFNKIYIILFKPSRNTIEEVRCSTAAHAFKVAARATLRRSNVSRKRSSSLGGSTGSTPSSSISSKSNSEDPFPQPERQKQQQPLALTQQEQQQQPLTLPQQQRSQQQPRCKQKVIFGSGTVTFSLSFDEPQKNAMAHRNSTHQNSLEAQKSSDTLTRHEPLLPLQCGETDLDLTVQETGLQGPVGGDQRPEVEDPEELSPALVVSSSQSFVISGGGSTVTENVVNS
Assay: cell-based or functional assay

B1: polypeptide of Example 1 (active polypeptide SEQ ID NO: 10) (peptide)
peptide 1: CARRRAR
peptide 2: YXFGGC
modifications: D-Tyr 1; Aib (2-aminoisobutyric acid) 2; D-Phe 3; L-Cys 6 disulfide-bonded to D-Cys 1 of the Y chain; free amino and carboxyl termini (H2N-D-Tyr-Aib-D-Phe-Gly-Gly-L-Cys-OH); N-terminal acetyl (Ac); C-terminal amide (NH2); all residues D-amino acids (Ac-D-Cys-D-Ala-D-Arg-D-Arg-D-Arg-D-Ala-D-Arg-NH2); D-Cys 1 disulfide-bonded to L-Cys 6 of the X chain
B1 was tested, and the “EC50 of agonistic activity on HEK293-CaSR cells, HTRF IP-1 competition method, at a Ca2+ concentration of 1.2 mM” value was 84.7 µM and the “EC50 of agonistic activity on HEK293-CaSR cells, HTRF IP-1 competition method, in the absence of Ca2+” value was 980 µM.
